Source: patent US9969812B2, “Anti human Notch4 antibody” (Eisai R&D Management Co., Ltd., priority 2015, dated 2018)

Molecular target: T1, Human Notch4-NRR Fusion Protein (Homo sapiens, UniProt Q99466)
T1 construct: Human Notch4-NRR domain Fc fusion proteins were expressed with a CHO cell line; Fc; made in house; host or cells: CHO cell line (antigen captured from culture supernatant)
T1 sequence (Q99466 1046-1445 limits assumed): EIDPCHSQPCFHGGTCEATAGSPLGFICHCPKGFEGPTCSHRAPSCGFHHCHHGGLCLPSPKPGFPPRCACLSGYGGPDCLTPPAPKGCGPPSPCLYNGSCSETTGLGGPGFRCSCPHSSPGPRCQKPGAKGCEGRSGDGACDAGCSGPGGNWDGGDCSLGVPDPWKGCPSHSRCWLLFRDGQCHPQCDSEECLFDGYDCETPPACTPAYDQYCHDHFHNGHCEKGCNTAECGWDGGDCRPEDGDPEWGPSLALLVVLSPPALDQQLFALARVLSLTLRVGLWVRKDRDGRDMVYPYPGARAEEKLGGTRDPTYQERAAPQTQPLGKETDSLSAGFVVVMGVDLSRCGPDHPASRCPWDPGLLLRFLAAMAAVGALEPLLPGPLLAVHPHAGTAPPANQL
Assay: Kinetic analysis, captured Human Notch4-NRR Fc fusion protein, humanized antibody injected
Type: binding
Settings: Table 30, Human Notch4-NRR Fc fusion
Description: Kinetic analysis of further anti-Notch4 inhibitory humanized antibodies was carried out as follows. Human Notch4-NRR domain Fc fusion proteins were expressed with a CHO cell line. The antigen in the culture supernatant was captured by the anti-human Notch4 antibody fixed on a CM5 sensor chip that recognizes different epitopes of human Notch4. The humanized anti-human Notch4 antibody was then injected onto the sensor chip at various concentrations. The interaction and disassociation constants thereof were calculated according to manufacturer's instructions.
In the table below, e.g. the description “HK2L3 (Lys-)” means that the heavy chain variable region of the humanized anti-human Notch4 antibody employed in the experiment is the heavy chain variable region of the humanized anti-human Notch4 antibody heavy chain HK2 in Example 1, light chain variable region is the light chain variable region of the humanized anti-human Notch4 antibody light chain L3 in Example 1, and lysine (Lys) located at the C-terminal of the heavy chain of a common human antibody is deleted in this antibody. Those without the description “(Lys-)” mean that Lys located at the C-terminal of the heavy chain of the human antibody is not deleted.

Rmax1 (RU): 37 RU
ka: 1.82e+06 M⁻¹ s⁻¹
kd: 0.000863 s⁻¹
B1: Antibody D: humanized anti-human Notch4 antibody, heavy chain variable region HK3, light chain variable region L5, C-terminal Lys deleted (antibody)
heavy: EVQLVESGGGLVQPGGSLRLSCAASGFTFSSYGMSWVRQAPGKGLELVATINSNGGRTYYPDSVKGRFTISRDNSKNTLYLQMGSLKAEDMAVYYCARDQGFAYWGQGTLVTVSSASTKGPSVFPLAPCSRSTSESTAALGCLVKDYFPEPVTVSWNSGALTSGVHTFPAVLQSSGLYSLSSVVTVPSSNFGTQTYTCNVDHKPSNTKVDKTVERKCCVECPPCPAPPAAAPSVFLFPPKPKDTLMISRTPEVTCVVVDVSHEDPEVQFNWYVDGVEVHNAKTKPREEQFNSTFRVVSVLTVVHQDWLNGKEYKCKVSNKGLPAPIEKTISKTKGQPREPQVYTLPPSREEMTKNQVSLTCLVKGFYPSDIAVEWESNGQPENNYKTTPPMLDSDGSFFLYSKLTVDKSRWQQGNVFSCSVMHEALHNHYTQKSLSLSPG
light: DIQMTQSPSSLSASVGDRVTITCKASQDVGTAVAWYQQKPGKSPKLLIYWASTRHTGVPSRFSGSGSGTDFTLTISSLQPEDVATYFCQQYSSYPWTFGQGTKVEIKRTVAAPSVFIFPPSDEQLKSGTASVVCLLNNFYPREAKVQWKVDNALQSGNSQESVTEQDSKDSTYSLSSTLTLSKADYEKHKVYACEVTHQGLSSPVTKSFNRGEC
